Experimental data from FireProtDB (doi:10.1016/0022-2836(92)90387-y).

Settings: Bacillus amyloliquefaciens; pH 6.3; 25 °C; Urea; Fluorescence; MES 50 mM; reversible: yes; whole UniProt chain shown

B1: Ribonuclease wild type, P00648 (protein)
chain: MMKMEGIALKKRLSWISVCLLVLVSAAGMLFSTAAKTETSSHKAHTEAQVINTFDGVADYLQTYHKLPDNYITKSEAQALGWVASKGNLADVAPGKSIGGDIFSNREGKLPGKSGRTWREADINYTSGFRNSDRILYSSDWLIYKTTDHYQTFTKIR
unfolding free energy: 8.83 kcal/mol
